GUS activity data for eight molecules are collected here from patent publication US7087420B1, “Microbial β-glucuronidase genes, gene products and uses thereof” (Cambia, priority 1997, dated 2006).

The chains are these.
B1: C, D, E: E. coli GUS mutein, Cys 197 to Ser, Cys 253 to Glu, Cys 262 to Ser (protein, UniProt P05804 1-603, looked up, variant C197S C253E C262S)
Beta-glucuronidase: MLRPVETPTREIKKLDGLWAFSLDRENCGIDQRWWESALQESRAIAVPGSFNDQFADADIRNYAGNVWYQREVFIPKGWAGQRIVLRFDAVTHYGKVWVNNQEVMEHQGGYTPFEADVTPYVIAGKSVRITVCVNNELNWQTIPPGMVITDENGKKKQSYFHDFFNYAGIHRSVMLYTTPNTWVDDITVVTHVAQDSNHASVDWQVVANGDVSVELRDADQQVVATGQGTSGTLQVVNPHLWQPGEGYLYELEVTAKSQTESDIYPLRVGIRSVAVKGEQFLINHKPFYFTGFGRHEDADLRGKGFDNVLMVHDHALMDWIGANSYRTSHYPYAEEMLDWADEHGIVVIDETAAVGFNLSLGIGFEAGNKPKELYSEEAVNGETQQAHLQAIKELIARDKNHPSVVMWSIANEPDTRPQGAREYFAPLAEATRKLDPTRPITCVNVMFCDAHTDTISDLFDVLCLNRYYGWYVQSGDLETAEKVLEKELLAWQEKLHQPIIITEYGVDTLAGLHSMYTDMWSEEYQCAWLDMYHRVFDRVSAVVGEQVWNFADFATSQGILRVGGNKKGIFTRDRKPKSAAFLLQKRWTGMNFGEKPQQGGKQ
B2: A, B, C, D, E: E. coli GUS mutein, Cys 28, 133, 197, 253, 262 changed to Asn, Ala, Ser, Glu, Ser (protein, UniProt P05804 1-603, looked up, variant C28N C133A C197S C253E C262S)
Beta-glucuronidase: MLRPVETPTREIKKLDGLWAFSLDRENNGIDQRWWESALQESRAIAVPGSFNDQFADADIRNYAGNVWYQREVFIPKGWAGQRIVLRFDAVTHYGKVWVNNQEVMEHQGGYTPFEADVTPYVIAGKSVRITVAVNNELNWQTIPPGMVITDENGKKKQSYFHDFFNYAGIHRSVMLYTTPNTWVDDITVVTHVAQDSNHASVDWQVVANGDVSVELRDADQQVVATGQGTSGTLQVVNPHLWQPGEGYLYELEVTAKSQTESDIYPLRVGIRSVAVKGEQFLINHKPFYFTGFGRHEDADLRGKGFDNVLMVHDHALMDWIGANSYRTSHYPYAEEMLDWADEHGIVVIDETAAVGFNLSLGIGFEAGNKPKELYSEEAVNGETQQAHLQAIKELIARDKNHPSVVMWSIANEPDTRPQGAREYFAPLAEATRKLDPTRPITCVNVMFCDAHTDTISDLFDVLCLNRYYGWYVQSGDLETAEKVLEKELLAWQEKLHQPIIITEYGVDTLAGLHSMYTDMWSEEYQCAWLDMYHRVFDRVSAVVGEQVWNFADFATSQGILRVGGNKKGIFTRDRKPKSAAFLLQKRWTGMNFGEKPQQGGKQ
B3: C: E. coli GUS mutein, Cys 197 changed to Ser (protein, UniProt P05804 1-603, looked up, variant C197S)
Beta-glucuronidase: MLRPVETPTREIKKLDGLWAFSLDRENCGIDQRWWESALQESRAIAVPGSFNDQFADADIRNYAGNVWYQREVFIPKGWAGQRIVLRFDAVTHYGKVWVNNQEVMEHQGGYTPFEADVTPYVIAGKSVRITVCVNNELNWQTIPPGMVITDENGKKKQSYFHDFFNYAGIHRSVMLYTTPNTWVDDITVVTHVAQDSNHASVDWQVVANGDVSVELRDADQQVVATGQGTSGTLQVVNPHLWQPGEGYLYELCVTAKSQTECDIYPLRVGIRSVAVKGEQFLINHKPFYFTGFGRHEDADLRGKGFDNVLMVHDHALMDWIGANSYRTSHYPYAEEMLDWADEHGIVVIDETAAVGFNLSLGIGFEAGNKPKELYSEEAVNGETQQAHLQAIKELIARDKNHPSVVMWSIANEPDTRPQGAREYFAPLAEATRKLDPTRPITCVNVMFCDAHTDTISDLFDVLCLNRYYGWYVQSGDLETAEKVLEKELLAWQEKLHQPIIITEYGVDTLAGLHSMYTDMWSEEYQCAWLDMYHRVFDRVSAVVGEQVWNFADFATSQGILRVGGNKKGIFTRDRKPKSAAFLLQKRWTGMNFGEKPQQGGKQ
B4: B: E. coli GUS mutein, Cys 133 changed to Ala (protein, UniProt P05804 1-603, looked up, variant C133A)
Beta-glucuronidase: MLRPVETPTREIKKLDGLWAFSLDRENCGIDQRWWESALQESRAIAVPGSFNDQFADADIRNYAGNVWYQREVFIPKGWAGQRIVLRFDAVTHYGKVWVNNQEVMEHQGGYTPFEADVTPYVIAGKSVRITVAVNNELNWQTIPPGMVITDENGKKKQSYFHDFFNYAGIHRSVMLYTTPNTWVDDITVVTHVAQDCNHASVDWQVVANGDVSVELRDADQQVVATGQGTSGTLQVVNPHLWQPGEGYLYELCVTAKSQTECDIYPLRVGIRSVAVKGEQFLINHKPFYFTGFGRHEDADLRGKGFDNVLMVHDHALMDWIGANSYRTSHYPYAEEMLDWADEHGIVVIDETAAVGFNLSLGIGFEAGNKPKELYSEEAVNGETQQAHLQAIKELIARDKNHPSVVMWSIANEPDTRPQGAREYFAPLAEATRKLDPTRPITCVNVMFCDAHTDTISDLFDVLCLNRYYGWYVQSGDLETAEKVLEKELLAWQEKLHQPIIITEYGVDTLAGLHSMYTDMWSEEYQCAWLDMYHRVFDRVSAVVGEQVWNFADFATSQGILRVGGNKKGIFTRDRKPKSAAFLLQKRWTGMNFGEKPQQGGKQ
B5: I: E. coli GUS mutein, Cys 527 changed to Lys (protein, UniProt P05804 1-603, looked up, variant C527K)
Beta-glucuronidase: MLRPVETPTREIKKLDGLWAFSLDRENCGIDQRWWESALQESRAIAVPGSFNDQFADADIRNYAGNVWYQREVFIPKGWAGQRIVLRFDAVTHYGKVWVNNQEVMEHQGGYTPFEADVTPYVIAGKSVRITVCVNNELNWQTIPPGMVITDENGKKKQSYFHDFFNYAGIHRSVMLYTTPNTWVDDITVVTHVAQDCNHASVDWQVVANGDVSVELRDADQQVVATGQGTSGTLQVVNPHLWQPGEGYLYELCVTAKSQTECDIYPLRVGIRSVAVKGEQFLINHKPFYFTGFGRHEDADLRGKGFDNVLMVHDHALMDWIGANSYRTSHYPYAEEMLDWADEHGIVVIDETAAVGFNLSLGIGFEAGNKPKELYSEEAVNGETQQAHLQAIKELIARDKNHPSVVMWSIANEPDTRPQGAREYFAPLAEATRKLDPTRPITCVNVMFCDAHTDTISDLFDVLCLNRYYGWYVQSGDLETAEKVLEKELLAWQEKLHQPIIITEYGVDTLAGLHSMYTDMWSEEYQKAWLDMYHRVFDRVSAVVGEQVWNFADFATSQGILRVGGNKKGIFTRDRKPKSAAFLLQKRWTGMNFGEKPQQGGKQ
B6: A, B, C, D, E, I: E. coli GUS mutein, Cys 28, 133, 197, 253, 262, 527 changed to Asn, Ala, Ser, Glu, Ser, Lys (protein, UniProt P05804 1-603, looked up, variant C28N C133A C197S C253E C262S C527K)
Beta-glucuronidase: MLRPVETPTREIKKLDGLWAFSLDRENNGIDQRWWESALQESRAIAVPGSFNDQFADADIRNYAGNVWYQREVFIPKGWAGQRIVLRFDAVTHYGKVWVNNQEVMEHQGGYTPFEADVTPYVIAGKSVRITVAVNNELNWQTIPPGMVITDENGKKKQSYFHDFFNYAGIHRSVMLYTTPNTWVDDITVVTHVAQDSNHASVDWQVVANGDVSVELRDADQQVVATGQGTSGTLQVVNPHLWQPGEGYLYELEVTAKSQTESDIYPLRVGIRSVAVKGEQFLINHKPFYFTGFGRHEDADLRGKGFDNVLMVHDHALMDWIGANSYRTSHYPYAEEMLDWADEHGIVVIDETAAVGFNLSLGIGFEAGNKPKELYSEEAVNGETQQAHLQAIKELIARDKNHPSVVMWSIANEPDTRPQGAREYFAPLAEATRKLDPTRPITCVNVMFCDAHTDTISDLFDVLCLNRYYGWYVQSGDLETAEKVLEKELLAWQEKLHQPIIITEYGVDTLAGLHSMYTDMWSEEYQKAWLDMYHRVFDRVSAVVGEQVWNFADFATSQGILRVGGNKKGIFTRDRKPKSAAFLLQKRWTGMNFGEKPQQGGKQ
B7: B, C, D, E: E. coli GUS mutein, Cys 133, 197, 253, 262 changed to Ala, Ser, Glu, Ser (protein, UniProt P05804 1-603, looked up, variant C133A C197S C253E C262S)
Beta-glucuronidase: MLRPVETPTREIKKLDGLWAFSLDRENCGIDQRWWESALQESRAIAVPGSFNDQFADADIRNYAGNVWYQREVFIPKGWAGQRIVLRFDAVTHYGKVWVNNQEVMEHQGGYTPFEADVTPYVIAGKSVRITVAVNNELNWQTIPPGMVITDENGKKKQSYFHDFFNYAGIHRSVMLYTTPNTWVDDITVVTHVAQDSNHASVDWQVVANGDVSVELRDADQQVVATGQGTSGTLQVVNPHLWQPGEGYLYELEVTAKSQTESDIYPLRVGIRSVAVKGEQFLINHKPFYFTGFGRHEDADLRGKGFDNVLMVHDHALMDWIGANSYRTSHYPYAEEMLDWADEHGIVVIDETAAVGFNLSLGIGFEAGNKPKELYSEEAVNGETQQAHLQAIKELIARDKNHPSVVMWSIANEPDTRPQGAREYFAPLAEATRKLDPTRPITCVNVMFCDAHTDTISDLFDVLCLNRYYGWYVQSGDLETAEKVLEKELLAWQEKLHQPIIITEYGVDTLAGLHSMYTDMWSEEYQCAWLDMYHRVFDRVSAVVGEQVWNFADFATSQGILRVGGNKKGIFTRDRKPKSAAFLLQKRWTGMNFGEKPQQGGKQ
B8: A: E. coli GUS mutein, Cys 28 changed to Asn (protein, UniProt P05804 1-603, looked up, variant C28N)
Beta-glucuronidase: MLRPVETPTREIKKLDGLWAFSLDRENNGIDQRWWESALQESRAIAVPGSFNDQFADADIRNYAGNVWYQREVFIPKGWAGQRIVLRFDAVTHYGKVWVNNQEVMEHQGGYTPFEADVTPYVIAGKSVRITVCVNNELNWQTIPPGMVITDENGKKKQSYFHDFFNYAGIHRSVMLYTTPNTWVDDITVVTHVAQDCNHASVDWQVVANGDVSVELRDADQQVVATGQGTSGTLQVVNPHLWQPGEGYLYELCVTAKSQTECDIYPLRVGIRSVAVKGEQFLINHKPFYFTGFGRHEDADLRGKGFDNVLMVHDHALMDWIGANSYRTSHYPYAEEMLDWADEHGIVVIDETAAVGFNLSLGIGFEAGNKPKELYSEEAVNGETQQAHLQAIKELIARDKNHPSVVMWSIANEPDTRPQGAREYFAPLAEATRKLDPTRPITCVNVMFCDAHTDTISDLFDVLCLNRYYGWYVQSGDLETAEKVLEKELLAWQEKLHQPIIITEYGVDTLAGLHSMYTDMWSEEYQCAWLDMYHRVFDRVSAVVGEQVWNFADFATSQGILRVGGNKKGIFTRDRKPKSAAFLLQKRWTGMNFGEKPQQGGKQ

The assay deals with KW1. The assay is described as follows: X-GlcA staining of low-cysteine E. coli GUS muteins in KW1. In kind it is cell-based. Conditions: pBS backbone in KW1, staining with X-GlcA. The source says:
Single and multiple Cys muteins are constructed by site-directed mutagenesis techniques. Eight of the nine cysteine residues in E. coli GUS are changed to the corresponding residue found in human GUS based on alignment of the two protein sequences. One of the E. coli GUS cysteine residues, amino acid 463, aligns with a cysteine residue in human GUS and was not altered. The corresponding amino acids between E. coli GUS and human GUS are shown below.
The mutein GUS genes are cloned into a pBS backbone. The mutations are confirmed by diagnostic restriction site changes and by DNA sequence analysis. Recombinant vectors are transfected into KW1 and GUS activity assayed by staining with X-GlcA (5-bromo-4-chloro-3-indolyl-β-D-glucuronide).
In the case of B1, the GUS activity result was “Yes”.
Regarding B2, the GUS activity result is on record as “Yes”.
On to B3, for which the GUS activity entry was “Yes”.
With B4, the GUS activity entry is on record as “Yes”.
Then B5, with “No”.
Consider B6, for which the GUS activity result is “No”.
Then B7, with “Yes”; and B8, with “Yes”.
